Test results taken from patent US20210093730A1, “BIOMARKERS FOR ANTIBODY-DRUG CONJUGATE MONOTHERAPY OR COMBINATION THERAPY” (Immunomedics, Inc., priority 2019, published 2021).
Where “and” joins values, the source holds several entries; their conditions need not be identical. Identical values can stand only once. Like-named read-outs stand apart in the source and are kept apart here.

Columns and labels:
[1] = system: metastatic urothelial cancer; assay: Further study of sacituzumab govitecan in metastatic urothelial cancer (mUC), 32 pts enrolled; type: in vivo, human
From the text: Response-evaluable pts received ≥2 doses, and had ≥1 post-baseline response assessment.

[2] = system: diverse metastatic solid cancers
From the text: Patients were refractory/relapsed after standard treatment regimens for metastatic cancer.

[3] = system: platinum-resistant urothelial carcinoma; conditions: 6 patients; cited from earlier work
[4] = system: metastatic small-cell lung cancer; conditions: cited from earlier work
[5] = system: non-small cell lung cancer (NSCLC); conditions: cited from earlier work
[6] = 48 assessable pts excluding PDC
[7] = esophageal cancer, 4 assessable patients

**Q.** For sacituzumab govitecan, which “ORR, pts with 1 line of prior chemotherapy” value ([1]; 7/13) is on record?
**A.** Its value is 53.8%.

**Q.** What about the ORR ([1]; 25 assessable pts, 8 or 10 mg/kg days 1 and 8 every 21 days) of the same substance?
**A.** The ORR was 36%.

**Q.** And the “grade 3 hypophosphatemia” value ([1]; 25 pts)?
**A.** The value was 8%.

**Q.** And the “grade 4 neutropenia” value ([1]; 25 pts)?
**A.** Its value is 16%.

**Q.** And the “duration of response for CR/PR pts” value ([1]; 95% CI 4.1-12.9)?
**A.** Its value is 5.1 mos.

**Q.** And the “median PFS” value ([1]; all patients, 95% CI 4.9-10.7)?
**A.** The value was 7.2 mos.

**Q.** What about the “ORR, pts with 2 to 5 prior therapy lines” value ([1]; in vivo) of the same substance?
**A.** The value was 16.7%.

**Q.** And the “duration of grade 4 neutropenia” value ([1]; in vivo)?
**A.** Its value is < 7 days.

**Q.** What about the “PR among pts with progression after prior IO” value ([1]; of 4 pts) of the same substance?
**A.** The value was 1 patients.

**Q.** What about the “complete responses (CR)” value ([1]; of 25 pts) of the same substance?
**A.** Its value is 1 patients.

**Q.** And the “partial responses (PR)” value ([1]; of 25 pts)?
**A.** The value was 8 patients.

**Q.** And the “pts with stable disease >4 mos” value ([1]; of the SD pts)?
**A.** Its value is 10/11.

**Q.** What about the “partial response (PR), % of patients” value [2, 6] of the same substance?
**A.** Its value is 15%.

**Q.** What about the “stable disease (SD), % of patients” value [2, 6] of the same substance?
**A.** Its value is 56%.

**Q.** And the “disease response, % of patients” value ([2]; 48 assessable pts excluding PDC, printed 38 pts)?
**A.** Its value is 79%.

**Q.** And the “maximum reduction in target lesions” value ([2]; CRC case, after 10 months of treatment)?
**A.** Its value is 65%.

**Q.** What about the CEA after treatment ([2]; CRC case, decrease from 781 ng/mL) of the same substance?
**A.** Its CEA after treatment is 26.5 ng/mL.

**Q.** And the “reduction in target lesions at first CT assessment” value ([2]; CRC case, starting dose 8 mg/kg)?
**A.** Its value is 37%.

**Q.** What about the “total response [PR+SD]” value ([2]; CRC, 12/18) of the same substance?
**A.** Its value is 67%.

**Q.** And the “PD, patients” value ([2]; CRC, 18 assessable patients)?
**A.** The value was 6 patients.

**Q.** And the “PR, patients” value ([2]; CRC, 18 assessable patients)?
**A.** The value was 1 patients.

**Q.** What about the “primary target lesion size at first CT” value ([2]; NSCLC case, 5.6 cm at start, after 6th dose) of the same substance?
**A.** Its value is 3.2 cm.

**Q.** And the “total response [PR+SD]” value ([2]; NSCLC, 4/5)?
**A.** The value was 80%.

**Q.** And the “PD, patients” value ([2]; NSCLC, 5 assessable patients)?
**A.** Its value is 1 patients.

**Q.** What about the “PR, patients” value ([2]; NSCLC, 5 assessable patients) of the same substance?
**A.** The value was 1 patients.

**Q.** And the “reduction in target lesions” value ([2]; SCLC case, 12 mg/kg reduced to 6.8 mg/kg, after two months)?
**A.** The value was 38%.

**Q.** And the “total response [PR+SD]” value ([2]; SCLC, 2/4)?
**A.** Its value is 50%.

**Q.** What about the “PD, patients” value ([2]; SCLC, 4 assessable patients) of the same substance?
**A.** Its value is 2 patients.

**Q.** And the “PR, patients” value ([2]; SCLC, 4 assessable patients)?
**A.** Its value is 2 patients.

**Q.** And the “total response [PR+SD]” value ([2]; TNBC, 6/8)?
**A.** Its value is 75%.

**Q.** And the “PD (progressive disease), patients” value ([2]; TNBC, 8 assessable patients)?
**A.** The value was 2 patients.

**Q.** And the “PR (partial response), patients” value ([2]; TNBC, 8 assessable patients)?
**A.** The value was 2 patients.

**Q.** What about the “total response [PR+SD]” value ([2]; all, 34/48) of the same substance?
**A.** The value was 71%.

**Q.** And the “PD, patients” value ([2]; all, 48 assessable patients)?
**A.** The value was 14 patients.

**Q.** What about the “PR, patients” value ([2]; all, 48 assessable patients) of the same substance?
**A.** Its value is “Seven”.

**Q.** What about the “PR, patients” value ([2]; all, 48 assessable patients, listed as hRS7-SN-38) of the same substance?
**A.** The value was 7 patients.

**Q.** What about the “total response [PR+SD]” value ([2]; esophageal cancer, 3/4) of the same substance?
**A.** Its value is 75%.

**Q.** What about the “PD, patients” value [2, 7] of the same substance?
**A.** The value was 1 patients.

**Q.** What about the “PR, patients” value [2, 7] of the same substance?
**A.** Its value is 1 patients.

**Q.** What about the “Abdominal pain, Grade 3” value ([2]; in vivo) of the same substance?
**A.** Its value is 0.

**Q.** What about the “Abdominal pain, Grade 4” value ([2]; in vivo) of the same substance?
**A.** Its value is 0.

**Q.** What about the “Abdominal pain, TOTAL” value ([2]; in vivo) of the same substance?
**A.** The value was 11%.

**Q.** And the “Alopecia, TOTAL” value ([2]; in vivo)?
**A.** Its value is 40%.

**Q.** What about the “Anemia, Grade 4” value ([2]; in vivo) of the same substance?
**A.** Its value is 0.

**Q.** And the “Anemia, TOTAL” value ([2]; in vivo)?
**A.** Its value is 13%.

**Q.** And the “Deep vein thrombosis, Grade 3” value ([2]; in vivo)?
**A.** The value was 1 (2%).

**Q.** What about the “Deep vein thrombosis, Grade 4” value ([2]; in vivo) of the same substance?
**A.** Its value is 0.

**Q.** What about the “Deep vein thrombosis, TOTAL” value ([2]; in vivo) of the same substance?
**A.** The value was 2%.

**Q.** And the “Diarrhea, Grade 4” value ([2]; in vivo)?
**A.** The value was 0.

**Q.** And the “Diarrhea, TOTAL” value ([2]; in vivo)?
**A.** Its value is 47%.

**Q.** What about the “Dysgeusia, Grade 3” value ([2]; in vivo) of the same substance?
**A.** Its value is 0.

**Q.** What about the “Dysgeusia, Grade 4” value ([2]; in vivo) of the same substance?
**A.** The value was 0.

**Q.** And the “Dysgeusia, TOTAL” value ([2]; in vivo)?
**A.** The value was 15%.

**Q.** What about the “Fatigue, Grade 4” value ([2]; in vivo) of the same substance?
**A.** Its value is 0.

**Q.** What about the “Fatigue, TOTAL” value ([2]; in vivo) of the same substance?
**A.** Its value is 55%.

**Q.** And the “Hypokalemia, Grade 3” value ([2]; in vivo)?
**A.** The value was 1 (2%).

**Q.** What about the “Hypokalemia, Grade 4” value ([2]; in vivo) of the same substance?
**A.** Its value is 0.

**Q.** And the “Hypokalemia, TOTAL” value ([2]; in vivo)?
**A.** The value was 11%.

**Q.** What about the “Nausea, Grade 4” value ([2]; in vivo) of the same substance?
**A.** Its value is 0.

**Q.** What about the “Nausea, TOTAL” value ([2]; in vivo) of the same substance?
**A.** The value was 53%.

**Q.** And the “Neutropenia, TOTAL” value ([2]; in vivo)?
**A.** Its value is 43%.

**Q.** What about the “Pyrexia, Grade 3” value ([2]; in vivo) of the same substance?
**A.** Its value is 0.

**Q.** And the “Pyrexia, Grade 4” value ([2]; in vivo)?
**A.** Its value is 0.

**Q.** What about the “Pyrexia, TOTAL” value ([2]; in vivo) of the same substance?
**A.** The value was 13%.

**Q.** What about the “Vomiting, Grade 4” value ([2]; in vivo) of the same substance?
**A.** The value was 0.

**Q.** And the “Vomiting, TOTAL” value ([2]; in vivo)?
**A.** The value was 32%.

**Q.** And the “WBC Decrease, Grade 3” value ([2]; in vivo)?
**A.** Its value is 1 (2%).

**Q.** And the “WBC Decrease, Grade 4” value ([2]; in vivo)?
**A.** The value was 0.

**Q.** And the “WBC Decrease, TOTAL” value ([2]; in vivo)?
**A.** Its value is 6%.

**Q.** What about the alopecia ([2]; in vivo) of the same substance?
**A.** The alopecia was 40%.

**Q.** What about the “anemia, grade 3” value ([2]; in vivo) of the same substance?
**A.** Its value is 2 (4%).

**Q.** And the “anti-hRS7 or anti-SN-38 antibodies” value ([2]; in vivo)?
**A.** Its value is “No anti-hRS7 or anti-SN-38 antibodies were detected”.

**Q.** What about the diarrhea ([2]; in vivo) of the same substance?
**A.** The diarrhea was 47%.

**Q.** What about the “diarrhea >=G3” value ([2]; in vivo) of the same substance?
**A.** The value was 9%.

**Q.** What about the “diarrhea, grade 3” value ([2]; in vivo) of the same substance?
**A.** The value was 4 (9%).

**Q.** And the fatigue ([2]; in vivo)?
**A.** The fatigue was 55%.

**Q.** And the “fatigue >=G3” value ([2]; in vivo)?
**A.** The value was 9%.

**Q.** And the “fatigue, grade 3” value ([2]; in vivo)?
**A.** The value was 4 (9%).

**Q.** And the nausea ([2]; in vivo)?
**A.** The nausea was 53%.

**Q.** What about the “nausea >=G3” value ([2]; in vivo) of the same substance?
**A.** The value was 0%.

**Q.** And the “nausea, grade 3” value ([2]; in vivo)?
**A.** Its value is 0.

**Q.** What about the “neutropenia >=G3” value ([2]; in vivo) of the same substance?
**A.** The value was 28%.

**Q.** And the “neutropenia G4” value ([2]; in vivo)?
**A.** Its value is 4%.

**Q.** What about the “neutropenia, grade 3” value ([2]; in vivo) of the same substance?
**A.** The value was 11 (24%).

**Q.** And the “neutropenia, grade 4” value ([2]; in vivo)?
**A.** The value was 2 (4%).

**Q.** What about the vomiting ([2]; in vivo) of the same substance?
**A.** The vomiting was 32%.

**Q.** What about the “vomiting >=G3” value ([2]; in vivo) of the same substance?
**A.** The value was 2%.

**Q.** And the “vomiting, grade 3” value ([2]; in vivo)?
**A.** Its value is 1 (2%).

**Q.** What about the “median time to progression (TTP), PDC pts” value ([2]; pancreatic cancer, 8 wks in last prior therapy) of the same substance?
**A.** The value was 12.7 wks and 11.9 wks.

**Q.** And the “TTP, remaining 48 pts” value ([2]; range 6.0 to 51.4 wks)?
**A.** The value was ≥ 12.6 wks.

**Q.** And the clinically significant response [3]?
**A.** Its clinically significant response is 50%.

**Q.** And the ORR ([4]; 53 mSCLC patients (Gray et al., 2017))?
**A.** Its ORR is 14%.

**Q.** And the “median OS” value ([4]; Gray et al., 2017)?
**A.** The value was 7.5 months.

**Q.** And the “median PFS” value ([4]; Gray et al., 2017)?
**A.** The value was 3.7 months.

**Q.** What about the median response duration ([4]; Gray et al., 2017) of the same substance?
**A.** Its median response duration is 5.7 months.

**Q.** What about the “patients with tumor shrinkage from baseline” value ([4]; Gray et al., 2017) of the same substance?
**A.** Its value is “Sixty”.

**Q.** What about the clinical benefit rate ([5]; 47 patients) of the same substance?
**A.** Its clinical benefit rate is 43%.

**Q.** And the ORR ([5]; 47 response assessable patients, median three prior therapies)?
**A.** Its ORR is 19%.

**Q.** What about the “median OS” value ([5]; human, in vivo) of the same substance?
**A.** Its value is 9.5 months.

**Q.** What about the “median PFS” value ([5]; human, in vivo) of the same substance?
**A.** The value was 5.2 months.
